“Also recorded” adds a separate entry of the source.
T1: GM-CSF (Mus musculus, UniProt P01587)
T1 construct: purchased Peprotech
T1 sequence (P01587 18-141): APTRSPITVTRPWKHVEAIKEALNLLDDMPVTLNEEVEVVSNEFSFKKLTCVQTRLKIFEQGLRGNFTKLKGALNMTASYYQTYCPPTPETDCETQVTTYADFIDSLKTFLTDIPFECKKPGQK

B1: GM-CSF: murine recombinant GM-CSF, Peprotech (protein, UniProt P01587 18-141, looked up)
Granulocyte-macrophage …: APTRSPITVTRPWKHVEAIKEALNLLDDMPVTLNEEVEVVSNEFSFKKLTCVQTRLKIFEQGLRGNFTKLKGALNMTASYYQTYCPPTPETDCETQVTTYADFIDSLKTFLTDIPFECKKPGQK
B2: sGMRa: GM-CSF receptor alpha (sGMRa), a soluble factor that binds GM-CSF (protein, UniProt P15509 23-320, looked up)
extracellular domain: EKSDLRTVAPASSLNVRFDSRTMNLSWDCQENTTFSKCFLTDKKNRVVEPRLSNNECSCTFREICLHEGVTFEVHVNTSQRGFQQKLLYPNSGREGTAAQNFSCFIYNADLMNCTWARGPTAPRDVQYFLYIRNSKRRREIRCPYYIQDSGTHVGCHLDNLSGLTSRNYFLVNGTSREIGIQFFDSLLDTKKIERFNPPSNVTVRCNTTHCLVRWKQPRTYQKLSYLDFQYQLDVHRKNTQPGTENLLINVSGDLENRYNFPSSEPRAKHSVKIRAADVRILNWSSWSEAIEFGSDDG
modifications: extracellular domain

Legend:
neural stem cells [1] = assay: rapid differentiation protocol of neural stem cells, immunostaining for O4, GalC and MBP; type: cell-based, mouse; settings: for % positive cells, GalC / % positive cells, MBP / % positive cells, O4: 20 ng/ml factor in MHM
Procedure: To determine the effect of GM-CSF on neural stem cell differentiation, a culture of neural stein cells was prepared from mouse embryos and subjected to a rapid differentiation protocol. Embryonic Day 14 (E14) mouse ganglionic eminence was dissected and grown in media hormone mix (MHM) plus 20 ng/ml epidermal growth factor (EGF) for one week to generate primary neurospheres. The composition of MHM was as follows: • DMEM/F12 (1:1) • glucose (0.6%) • glutamine (2 mM) • sodium bicarbonate ([…]) • HEPES (5 mM) • insulin (25 μg/ml • transferrin (100 μg/ml) • progesterone (20 nM) • putrescine (60 μM) • selenium chloride (30 nM)
Primary neurospheres were then dissociated and plated on poly-L-ornithine coated coverslips in 24-well plates at a density of 200,000 cells/ml in 1 ml of MHM per well. Cells were allowed to differentiate in the absence or presence of 20 ng/ml GM-CSF (murine recombinant GM-CSF, Peprotech) in MHM or 20 ng/ml of triiodothyronine (T3, Sigma) in MHM, or in a combination of both GM-CSF and T3. T3 is a known oligodendrocyte differentiation factor, which was used to compare GM-CSF in these experiments.
After 1, 3 or 5 days, the cells were fixed with 4% paraformaldehyde. […] After staining, the numbers of O4-positive, GalC-positive and MBP-positive cells were counted. The total number of cells were determined using Hoechst staining and live nuclei morphology under 40× magnification. This experiment was performed four times, and 10 non-overlapping fields per coverslip were counted each time. Statistical analyses of the results were performed using Anova with a Tukey-Honest post-hocs analysis.

[2] = test system: maturing oligodendrocytes; assay: dying maturing oligodendrocytes (GalC+, TUNEL+ cells); type: cell-based, mouse; settings: 1, 3 or 5 days in differentiation media, FIG. 2
Procedure: The survival effects of GM-CSF on oligodendrocytes were examined with two lines of experiments. In the first line of experiments, neural stem cells were cultured as described in Example 1 in the presence or absence of GM-CSF or T3, and were fixed after 1, 3 or 5 days of culture in differentiation media. The fixed cells were immunostained for the maturing oligodendrocyte marker GalC and TUNEL, which is a marker of dying cells. The numbers of dicing, maturing oligodendrocytes (GalC+, TUNEL+cells) were then counted and their percentage in total GalC+cells are shown in FIG. 2.

[3] = test system: differentiating neural stem cells; assay: Survival Assay: factor added or removed at different times, MBP staining; type: cell-based, mouse; parameters: MBP + cells after 5DIV: unit not given here; settings: for dependence of oligodendrocyte numbers on length of time the factor is present: summary of Table 2, MBP after 5 DIV
Procedure: In the second line of experiments, GM-CSF ,as given to differentiating neural stem cells at different times. Thus, neural stem cell culture was placed in differentiation media as described in Example 1, and GM-CSF was added after 24 or 48 hours, or added in the beginning but removed after 24 or 48 hours. Similarly, T3 was added or removed in the same manner in parallel experiments. The cells were fixed after 5 days in vitro and immunostained with the mature oligodendrocyte marker MBP.

[4] = test system: E14 ganglionic eminence cells; assay: total cell number of primary neural stem cell culture; type: cell-based, mouse; settings: MHM plus EGF plus factor, 1 week, versus MHM plus EGF, FIG. 3
Procedure: To assess the effect of GM-CSF on proliferation of neural stem cells, the number of cells generated in neurosphere cultures, prepared according to Example 1, was counted when grown for 1 week in various culture media. Thus, E14 ganglionic eminence cells were grown at a density of 200,000 cells/ml in 40 ml of media for 1 week. The media were MHM plus EGF, MHM plus EGF and GM-CSF, or MHM plus EGF and T3. Spheres were then collected, dissociated and cells were counted with a hemacytometer. The cell numbers were calculated as percentages of the control (MHM plus EGF).

[5] = test system: E14 mouse ganglionic eminence cells; assay: primary neurosphere numbers; type: cell-based; settings: MHM plus EGF plus factor, 20 ng/ml, 1 week, FIG. 4
Procedure: The effect of GM-CSF on primary neurosphere numbers was also examined by growing cells from E14 mouse ganglionic eminence in MHM plus EGF, MHM plus EGF plus GM-CSF, or MHM plus EGF plus T3, all at concentrations of 20 ng/ml. Thus, E14 mouse ganglionic eminence cells were dissociated and plated in 96well plates at a density of 10,000 cells/ml in 200 μl of media per well, and allowed to form primary neurospheres for a week. The number of primary spheres in each well as then counted and the aforementioned statistical analysis as performed.

[6] = test system: EGF-responsive neural stem cells; assay: secondary neurosphere numbers (self-expansion); type: cell-based, mouse; settings: FIG. 5; for number of secondary neurospheres: factor in secondary neurosphere media, primary spheres grown in EGF; for formation of secondary spheres: factor included in the media for primary neurospheres
Procedure: Furthermore, the effect of GM-CSF on self-expansion, proliferation of secondary neurospheres derived from primary neurospheres, was also assessed. Three media were used in the preparation of primary spheres: MHM plus EGF, MHM plus EGF plus GM-CSF and MHM plus EGF plus T3. The primary, spheres were dissociated, plated in 96-well plates at a concentration of 1000 cells/well in 200μL media per well, and allowed to form secondary neurospheres for a week. The media for secondary cultures consisted of MHM plus EGF alone, MHM plus GM-CSF or T3 alone, or MHM plus EGF supplemented with GM-CSF or T3. The number of secondary spheres in each well was then counted, calculated as percentage of control (EGF to EGF).

neural stem cells [7] = assay: fate determination analysis (MBP+ and β-tubulin+ cells); type: cell-based, mouse; settings: primary spheres generated in EGF plus factor, differentiated 5 days, FIG. 6
Procedure: To determine if the presence of GM-CSF during primary neurosphere formation impacts fate determination of neural stem cells, primary neurospheres were generated in either EGF alone, EGF plus GM-CSF, or EGF plus T3 as described in Example 3. The primary spheres were then dissociated and plated on poly-L-ornithine coated coverslips in 24-well plates at a density of 200,000 cells/well in 1 ml of MHM per well, and allowed to differentiate for 5 days. At the end the differentiation period, the cells were fixed with 4% paraformaldehyde and immunostained for the mature oligodendrocyte marker MBP, the neuronal marker β-tubulin, and Hoechst. The total number of live cells, evidenced by Hoechst stain, were counted as well as the immunostained cells.

[8] = McLay et al., 1997; cited from earlier work
GM-CSF = molecular target: T1, GM-CSF; assay: rapid differentiation protocol with GM-CSF with or without soluble GM-CSF receptor alpha; type: cell-based; settings: 100-fold excess of sGMRa, 5 days in vitro, FIG. 1
Procedure: A rapid differentiation protocol was performed, as described above, in the absence or presence of GM-CSF, with or without a 100-fold excess of sGMRa. After 5 days in vitro, the cells were fixed, immunostained with the mature oligodendrocyte marker MBP and counted as previously described.

[9] = immature oligodendrocyte marker O4, 1 DIV
[10] = mature oligodendrocyte marker MBP, 1 DIV
[11] = maturing oligodendrocyte marker GalC, 1 DIV

Molecule	% positive cells, GalC (neural stem cells [1]; GalC, 3 DIV) [%]	% positive cells, GalC (neural stem cells [1]; GalC, 5 DIV) [%]	% positive cells, MBP (neural stem cells [1]; MBP, 3 DIV) [%]	% positive cells, MBP (neural stem cells [1]; MBP, 5 DIV) [%]	% positive cells, O4 (neural stem cells [1]; O4, 3 DIV) [%]	% positive cells, O4 (neural stem cells [1]; O4, 5 DIV) [%]	% positive cells, O4 (neural stem cells [1]; [9]) [%]	% positive cells, MBP (neural stem cells [1]; [10]) [%]	% positive cells, GalC (neural stem cells [1]; [11]) [%]	number of dying GalC+ cells (GalC+, TUNEL+ in total GalC+ cells) [2]	MBP + cells after 5DIV ([3]; factor added after 24 hours)	MBP + cells after 5DIV ([3]; factor added after 48 hours)	MBP + cells after 5DIV ([3]; factor present for 5 DIV)	MBP + cells after 5DIV ([3]; factor removed after 24 hours)	MBP + cells after 5DIV ([3]; factor removed after 48 hours)	dependence of oligodendrocyte numbers on length of time the factor is present [3]	total cell number in the neural stem cell culture [4]	ability of neural stem cells to form primary neurospheres [5]	number of secondary neurospheres [6]	formation of secondary spheres [6]	further results
N[C@@H](Cc1cc(I)c(Oc2ccc(O)c(I)c2)c(I)c1)C(=O)O [T3, triiodothyronine, reference compound]	15.3 ± 1.5	11.1 ± 0.9	13.9 ± 1.1	17.2 ± 1.6	35.9 ± 1.7	19.9 ± 1.5	18.2 ± 1.2	1.6 ± 0.4	8.0 ± 0.8	only minor survival effects, if any	14.8 ± 1.5	12.0 ± 1.1	13.9 ± 1.1	15.5 ± 1.1	13.8 ± 1.1	did not chance regardless of the length of time	reduces	neither GM-CSF nor T3 have significant effects	decreased	detrimental	number of mature oligodendrocytes (MBP+ cells) (neural stem cells [7]): increased; number of neurons (β-tubulin+ cells) (neural stem cells [7]): decreased
B1	7.4 ± 0.8	7.9 ± 1.0	8.1 ± 0.9	12.2 ± 1.3	25.7 ± 1.5	9.6 ± 1.0	16.6 ± 1.2	1.2 ± 0.3	4.1 ± 0.6	significantly reduced	8.1 ± 0.9	3.9 ± 0.6	8.0 ± 0.8	5.4 ± 1.0	9.7 ± 1.0	required for an extended period of time	slightly increased	neither GM-CSF nor T3 have significant effects	does not significantly affect	detrimental	percentage of oligodendrocytes produced from neural stem cells (neural stem cells [1]; every stage of oligodendrocyte development, versus control): significantly increased; also recorded: increased by several folds; number of mature oligodendrocytes (MBP+ cells) (neural stem cells [7]): increased; number of neurons (β-tubulin+ cells) (neural stem cells [7]): decreased; crossing the blood-brain barrier [8]: capable of crossing the blood-brain barrier
B2	–	–	–	–	–	–	–	–	–	–	–	–	–	–	–	–	–	–	–	–	effect of GM-CSF on MBP+ cells (GM-CSF): specifically inhibited

From patent US7704737B2, “Oligodendrocyte production from multipotent neural stem cells” (Stem Cell Therapeutics Inc., priority 2002, dated 2010)
